Legend:
[1] = target: Crotalus durissus terrificus (C.d.t.) venom; experiment: ELISA, C.d.t. venom coat, 1:625
[2] = target: Crotalus durissus terrificus (C.d.t.) venom; experiment: ELISA, C.d.t. venom coat, 1:5
[3] = target: Crotalus durissus terrificus (C.d.t.) venom; experiment: ELISA, C.d.t. venom coat, 1:125
[4] = target: Crotalus durissus terrificus (C.d.t.) venom; experiment: ELISA, C.d.t. venom coat, 1:3125
[5] = target: Crotalus durissus terrificus (C.d.t.) venom; experiment: ELISA, C.d.t. venom coat, 1:3125; remark: listed apart in the source
[6] = target: Crotalus durissus terrificus (C.d.t.) venom; experiment: ELISA, C.d.t. venom coat, 1:312,500
[7] = target: Crotalus durissus terrificus (C.d.t.) venom; experiment: ELISA, C.d.t. venom coat, 1:62,500
[8] = target: Crotalus durissus terrificus (C.d.t.) venom; experiment: ELISA, C.d.t. venom coat, undiluted
[9] = target: Crotalus durissus terrificus (C.d.t.) venom; experiment: ELISA, C.d.t. venom coat, 1:125; remark: listed apart in the source
[10] = target: Crotalus durissus terrificus (C.d.t.) venom; experiment: ELISA, C.d.t. venom coat, 1:25
[11] = target: Crotalus durissus terrificus (C.d.t.) venom; experiment: ELISA, C.d.t. venom coat, 1:25; remark: listed apart in the source
[12] = target: Crotalus durissus terrificus (C.d.t.) venom; experiment: ELISA, C.d.t. venom coat, 1:625; remark: listed apart in the source

Substance: preimmune IgY (antibody)
- ELISA absorbance [1]: 0 OD
- ELISA absorbance [2]: < 0 OD
- ELISA absorbance [3]: < 0 OD
- ELISA absorbance [4]: < 0 OD
- ELISA absorbance [5]: 0.002 OD
- ELISA absorbance [6]: 0.01 OD
- ELISA absorbance [7]: 0.001 OD
- ELISA absorbance [8]: 0.003 OD
- ELISA absorbance [9]: 0.003 OD
- ELISA absorbance [10]: 0 OD
- ELISA absorbance [11]: 0.016 OD
- ELISA absorbance [12]: < 0 OD

From US20040253673A1
